Data: the supplement of paper PMC10126150
± gives the standard deviation of the averaged measurements.

Tested on: ATP
Assay: switch fluorescence ratio, 500 uM ATP over buffer (Cy3 cluster intensity, sum of 5 cycles each) (fold (ratio)); higher = stronger signal-on switching upon ATP binding; sequences stand for … in TCGTCGGCAGCGTCAGATGTGTATAAGAGACAGTTTTTTTTTTTTTTTTTTTTTTTTT…TC
Conditions: aptamer strand: ATP DNA aptamer (quencher-CACCTGGGGGAGTATTGCGGAGGAAGG + anchor), 100 nM annealed; ATP concentration: 500 uM
In short: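 Imaging in selection buffer was followed by imaging after 15 min with 500 uM ATP at 22 °C, for Cy3-labelled switching-strand clusters annealed to 100 nM quencher-labelled ATP aptamer on a modified Illumina MiSeq flow-cell. Five of these buffer/ATP cycles ran, separated by NaOH stripping and re-annealing. The fluorescence ratio per cluster is summed target-cycle over summed buffer-cycle Cy3 intensity, averaged per switch-domain sequence; clusters outside 100-1000 RFU were removed.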
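Also: ATP exposure 15 min at 22 °C before imaging.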

Row | Sequence | switch fluorescence ratio
1 | CTAGGCTCAA | 1.004 ± 0.004
2 | CGGGAGAAAG | 1 ± 0.022
3 | CGTGGGGTCA | 0.982 ± 0.024
4 | ATCAGTGTGG | 0.967 ± 0.038
5 | CGGAAAGTGT | 0.996 ± 0.024
6 | AGGAGGGTTA | 1 ± 0.028
7 | TTTCGAGAAG | 1.05 ± 0.054
8 | GATTGGGGGA | 0.984 ± 0.036
9 | CCGAGGTCGT | 1.17 ± 0.066
10 | AGAAGTTTTC | 0.973 ± 0.038
11 | GGGATAAGAA | 0.992 ± 0.02
12 | TATCACATTT | 1.02 ± 0.018
13 | AGTGGAACTT | 0.976 ± 0.036
14 | AGTTTACATT | 1.02 ± 0.026
15 | TTATTAAATA | 0.98 ± 0.016
16 | ATTATTGAGA | 1.036 ± 0.004
17 | ATTAAGGTCA | 1.064 ± 0.0069
18 | AATTATCATC | 1.02 ± 0.013
19 | TCGTGTATCT | 0.946 ± 0.039
20 | GGCTCTTAGG | 0.975 ± 0.03
21 | GATAAGGGTG | 1.07 ± 0.0053
22 | AGCCCGCGCA | 1.03 ± 0.028
23 | TAGAGAAGCA | 1.012 ± 0.0061
24 | TACTGGCTGC | 1.02 ± 0.0078
25 | GCTGCCGTGT | 0.967 ± 0.064

Row | Sequence | switch fluorescence ratio
26 | TTATATATTG | 0.969 ± 0.029
27 | CTGGGGGGGG | 1 ± 0.038
28 | TACTTGGCTT | 1.02 ± 0.031
29 | GGGTTTTGGA | 0.998 ± 0.039
30 | TCGGACTCGG | 0.963 ± 0.017
31 | AGGATATCAG | 0.991 ± 0.027
32 | GAGTGGAAGC | 0.964 ± 0.051
33 | TATATGGCCC | 1.02 ± 0.02
34 | CTTATTTCCG | 1.032 ± 0.0096
35 | CTAGGAGGCG | 1.03 ± 0.053
36 | TAAGAGGTTT | 0.995 ± 0.01
37 | GTGTCGTGGC | 1.012 ± 0.0029
38 | AGGGAAAGGT | 1.06 ± 0.05
39 | TGAGAGTTAA | 0.961 ± 0.036
40 | TTAGCCTAGT | 0.965 ± 0.037
41 | AAGTGGCCGT | 1.01 ± 0.041
42 | AGTAGGCAAA | 1.01 ± 0.014
43 | AGGGACGGAG | 1.01 ± 0.034
44 | ATTGGTGGAG | 1.007 ± 0.0033
45 | TCCAAAGGGC | 1.07 ± 0.024
46 | TCAGAATTTT | 1.04 ± 0.02
47 | GCCTGCCCCG | 1.69 ± 0.026
48 | TGATAATAGA | 0.9953 ± 0.0011
49 | TTGCCGGGGC | 0.998 ± 0.017
50 | TTTCAGGTGG | 1.02 ± 0.015

Row | Sequence | switch fluorescence ratio
51 | GCGTTGTTTG | 0.958 ± 0.042
52 | TAATTCGTCG | 0.997 ± 0.018
53 | TTATTAAGTT | 1.01 ± 0.027
54 | AATCGGTAGG | 1.01 ± 0.027
55 | TCGTACATGA | 1.013 ± 0.00015
56 | CTAATTTGCC | 1.02 ± 0.084
57 | GTTGGGACGA | 1 ± 0.015
58 | GGGGACAGAT | 0.991 ± 0.017
59 | AGTTTAATGT | 1 ± 0.027
60 | AAGGCGGGGC | 0.981 ± 0.051
61 | TACGGGGTCT | 1.04 ± 0.037
62 | TCGTAGAGTG | 0.954 ± 0.026
63 | TTCGTATTTC | 1.06 ± 0.083
64 | GCTCGGGTTG | 0.984 ± 0.041
65 | CAAGTAGGG | 0.956 ± 0.052
66 | TTTGTGAGT | 0.979 ± 0.017
67 | GCGGGGGAAC | 1.018 ± 0.0055
68 | GCAGCAGCTT | 1.01 ± 0.039
69 | CGGGCAAGGT | 1.038 ± 0.01
70 | CCAGCCTAGT | 0.98408 ± 0.0008
71 | GGGGTATTGC | 1.004 ± 0.0076
72 | TTTTTGGGAT | 1.01 ± 0.031
73 | TGGACCGGGC | 1 ± 0.025
74 | GTGTAACAGA | 1 ± 0.013
75 | GAATTAGCTT | 0.983 ± 0.023

Row | Sequence | switch fluorescence ratio
76 | GGTGTGACCA | 1.02 ± 0.015
77 | TTCGTGTGGT | 1 ± 0.019
78 | AGTTTGATAG | 0.998 ± 0.017
79 | TAGTCGCCGA | 0.986 ± 0.017
80 | TATTGGTCTA | 1.04 ± 0.087
81 | GCGCCCAACT | 1.03 ± 0.035
82 | TGTCGAAAGA | 0.999 ± 0.013
83 | AAAAAATGGG | 1.01 ± 0.012
84 | TTTTTCACGG | 0.999 ± 0.034
85 | GCGCCCGTGG | 1.01 ± 0.034
86 | TTTAGGTCAT | 1.01 ± 0.083
87 | ATTCTTCCGC | 3.88 ± 0.16
88 | TTATGGTTAG | 1.008 ± 0.0092
89 | AAAAACGGCT | 0.99 ± 0.017
90 | GTTATTAGCT | 0.992 ± 0.013
91 | ATTGTTTTGT | 0.987 ± 0.051
92 | GTGGACTAGT | 1.02 ± 0.026
93 | ACACGGGTTA | 1 ± 0.047
94 | CTGTAAATTT | 0.991 ± 0.03
95 | GATGGAAAGG | 0.998 ± 0.029
96 | GCGTGTCTAT | 0.991 ± 0.019
97 | AACTCTAAAA | 1.05 ± 0.051
98 | GGGGGCAACT | 0.997 ± 0.017
99 | ACAGTGTGGT | 1.07 ± 0.031
100 | AGGCGAAGGG | 0.993 ± 0.032

Row | Sequence | switch fluorescence ratio
101 | GGGTGAGGCG | 0.981 ± 0.038
102 | GCTTGATTGG | 1.04 ± 0.019
103 | ATAGCCCGCT | 1.03 ± 0.0014
104 | TGAGAAGTTG | 1.01 ± 0.066
105 | GATGCTTGTG | 0.978 ± 0.011
106 | TTTTATGACA | 1.02 ± 0.033
107 | ACGAAAATGG | 1.05 ± 0.062
108 | TAAAATTGAA | 0.9905 ± 0.0041
109 | CGGGGGACGG | 0.982 ± 0.029
110 | CAAGTTTGGG | 0.982 ± 0.019
111 | TAACGCAGCT | 1.07 ± 0.073
112 | AGTGGGTTTT | 0.988 ± 0.043
113 | CGAAAATCTT | 0.9949 ± 0.0095
114 | AAGATACGTT | 1.03 ± 0.011
115 | GGGCTTTATG | 0.986 ± 0.023
116 | GGTTATAATT | 1.004 ± 0.0011
117 | ATTTGCTTGT | 1.01 ± 0.021
118 | TGCAGGCCAA | 1.08 ± 0.026
119 | GGGTGGGGCA | 1.01 ± 0.045
120 | AGTTAATTTC | 0.989 ± 0.03
121 | CGTTGAGGAC | 1.024 ± 0.0053
122 | TTTAATCGTT | 0.999 ± 0.014
123 | TATGAGTATT | 0.9875 ± 0.0026
124 | ATCTGTGAAC | 1.05 ± 0.073
125 | TTTTACGGTG | 0.978 ± 0.03

Row | Sequence | switch fluorescence ratio
126 | CCCGGGTTGT | 1.16 ± 0.12
127 | AATTTTTCTT | 0.98 ± 0.05
128 | ACGTCTTCAC | 1.069 ± 0.002
129 | CAAGGGCCAG | 0.973 ± 0.07
130 | AAGGAATTGT | 0.9729 ± 0.0085
131 | ATGACTAAGA | 1.006 ± 0.0034
132 | ATGAAAGCGT | 1.032 ± 0.01
133 | GGGGGGACGT | 1.02 ± 0.035
134 | AGCAACATTA | 1.06 ± 0.025
135 | TGTTTATCAT | 0.978 ± 0.017
136 | CGGGCTCAGC | 1.008 ± 0.0094
137 | TTTGAGTGTG | 0.997 ± 0.03
138 | AGCGTATGTG | 1.02 ± 0.062
139 | AGGGGCGGTT | 0.978 ± 0.02
140 | TCGTCTAATG | 0.9784 ± 0.0016
141 | ATTTTCATAC | 1.08 ± 0.026
142 | AGAAGGGGGG | 0.998 ± 0.022
143 | ATCAAGGTTC | 0.9917 ± 0.0095
144 | AAAGAGGAGG | 0.984 ± 0.036
145 | GCAATCAGAA | 1.04 ± 0.035
146 | CGGTTCCCTA | 0.978 ± 0.033
147 | CTTATGGACT | 0.991 ± 0.033
148 | CCATTTTTTG | 0.993 ± 0.028
149 | ACACCTAGGC | 1.12 ± 0.054
150 | AGAAATACGG | 1.21 ± 0.063

Row | Sequence | switch fluorescence ratio
151 | TTCCATCGGG | 0.993 ± 0.033
152 | CAGCCCAGGT | 4.12 ± 2.7
153 | TTTCGGTTGG | 0.999 ± 0.032
154 | GCGTGCAGGA | 1.027 ± 0.01
155 | GATATAGGGG | 1 ± 0.034
156 | GTTTTTTGCG | 0.999 ± 0.036
157 | CATGAATATT | 0.99 ± 0.037
158 | GGGGATTTGA | 0.995 ± 0.029
159 | TATTTGTCAT | 1.02 ± 0.013
160 | TTGTACGCCA | 1.31 ± 0.19
161 | GTGTAATAAG | 0.99 ± 0.031
162 | GCAAAGTCTG | 0.984 ± 0.046
163 | GAGATCGTCG | 0.993 ± 0.01
164 | ACAGATGGGA | 1.04 ± 0.046
165 | CCGGAAGGGG | 1.06 ± 0.02
166 | ATAAAAGAAT | 0.998 ± 0.0085
167 | GACGCACTGG | 1.853 ± 0.0015
168 | ATTGGCACT | 1.03 ± 0.018
169 | AATGGCTGGT | 0.994 ± 0.017
170 | TTTGTCTGGT | 0.992 ± 0.017
171 | AGGTGCCAG | 0.96208 ± 0.00094
172 | CGAATATTGA | 0.959 ± 0.038
173 | GGGGGAGTTG | 0.982 ± 0.044
174 | ATGGAGAGAA | 1.01 ± 0.039
175 | TATTTAGATG | 1.01 ± 0.018

Row | Sequence | switch fluorescence ratio
176 | GTCAAAGCCA | 1.02 ± 0.019
177 | AACAGCCACA | 1.11 ± 0.028
178 | AGTTCACTGG | 0.979 ± 0.02
179 | TTACGGGCGT | 0.99 ± 0.013
180 | CTGGGTTGCG | 0.958 ± 0.032
181 | AGGGTTGGAA | 0.967 ± 0.011
182 | AAAACACGTA | 1.13 ± 0.035
183 | AATGCCTGCG | 1.02 ± 0.034
184 | GGGGGAAATT | 1.03 ± 0.015
185 | GGATTTGGCC | 1 ± 0.043
186 | CCCGATGAGC | 1.05 ± 0.025
187 | TATGTATGGA | 0.989 ± 0.015
188 | AGGGTTGGGA | 0.9962 ± 0.0068
189 | GCTTTTTCCA | 0.975 ± 0.035
190 | TTTTAGGTCC | 0.977 ± 0.023
191 | CCTAGATAAC | 1.16 ± 0.039
192 | ATATATAAGT | 0.972 ± 0.011
193 | TGGCAATTTG | 1 ± 0.033
194 | GGGGCCGTTG | 0.949 ± 0.012
195 | TTTAAAGAAA | 1.02 ± 0.016
196 | TCCCGCTGGG | 1.17 ± 0.22
197 | TTTGGTCAAG | 1.01 ± 0.016
198 | CGCAAAGAAG | 1.08 ± 0.02
199 | GCTACTTTTG | 0.998 ± 0.027
200 | TATGGATCGC | 1.01 ± 0.026
